Results on 45 variants are retold here after the supplement of paper PMC12783771.

± gives the standard deviation of the averaged measurements.

B1: library; a variant is named by its letters at X, in order (parent)
chain: MNIQIGELAKRTACPVVTIRFYEQEGLLPPPGRSRGNFRLYGEEHVERLQFIRHCRSLDMPLSXVRTLLSYRKRPDQDCGEVXMLLDEHIRQVESRIGALLELXHHXVELREACSGARPAQSCGILQXLSXCVCXTRGTTAHXSD

Data set [1] covers variants of B1. The data set can be described thus: sfGFP reporter fluorescence (15 h) (µM FITC); higher = higher leak. The following applies: library round: Round 3; ligand: none. Here is the method: (§1)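 Cell-free biosensing: 1 µL Echo-assembled CFE reactions with linear PbrR variant templates (5 nM) and pPbrR-sfGFP reporter, with 1 µM Pb, 30 µM Zn or no ligand; endpoint sfGFP fluorescence after 15 h at 30 °C calibrated as µM FITC. Round 3 ML-predicted PbrR mutants; up to 3 biological replicates.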

In data set [2] the parent is B1. The data set can be described thus: sfGFP reporter fluorescence (15 h) (µM FITC); higher = stronger transcriptional activation. The following applies: library round: Round 3. As to the method: as §1

With DTKLGDPR V108L, the sfGFP reporter fluorescence in data set [1] turned out to be 0.043 ± 0.0024; in data set [2] (ligand: 1 µM Pb), 0.0866 ± 0.0042; in data set [2] (ligand: 30 µM Zn), 0.142 ± 0.0031.
For DSKLGAPW, in that order: 0.043 ± 0.0014, 0.138 ± 0.012 and 0.227 ± 0.025.
On to KNMCMDDP P61N, for which the sfGFP reporter fluorescence turned out to be 1.45 ± 0.17 in data set [1], 2.43 ± 0.21 in data set [2] (ligand: 1 µM Pb) and 2.66 ± 0.22 in data set [2] (ligand: 30 µM Zn).
On the same counts, the results for DSKLGSPP V108L are 0.0407 ± 0.0012, 0.121 ± 0.0045 and 0.247 ± 0.0044.
On the same counts, the results for DNKLHAPW L101V are 0.06686 ± 0.00034, 0.307 ± 0.028 and 1.11 ± 0.06.
On the same counts, the results for DSKLGHPY are 0.0395 ± 0.00071, 0.112 ± 0.007 and 0.234 ± 0.033.
As for DTKLGCDL Q121A, the sfGFP reporter fluorescence in data set [1] is 0.0413 ± 0.00047; in data set [2] (ligand: 1 µM Pb), 0.101 ± 0.0031; in data set [2] (ligand: 30 µM Zn), 0.103 ± 0.0093.
On the same counts, the results for DTKCGADI are 0.227 ± 0.0097, 1.54 ± 0.036 and 2.16 ± 0.09.
On the same counts, the results for DNRLHCDL E109L are 0.0447 ± 0.0052, 0.094 ± 0.0039 and 0.23 ± 0.0064.
On the same counts, the results for DTKLGAPW Q121A are 0.0438 ± 0.0019, 0.216 ± 0.0053 and 0.277 ± 0.013.
On to DTKLGHPY Q121A, for which the sfGFP reporter fluorescence in data set [1] was 0.0423 ± 0.0015; in data set [2] (ligand: 1 µM Pb), 0.206 ± 0.019; in data set [2] (ligand: 30 µM Zn), 0.289 ± 0.021.
For DTKLGSDP V108L H142A, the values for the sfGFP reporter fluorescence in data set [1], in data set [2] (ligand: 1 µM Pb) and in data set [2] (ligand: 30 µM Zn) were 0.0396 ± 0.00089, 0.076 ± 0.0048 and 0.278 ± 0.029, respectively.
On the same counts, the results for DTKLGMPP V108L are 0.0413 ± 0.00089, 0.144 ± 0.0074 and 0.187 ± 0.0045.
For KNVEGDDP M60L P61N, in that order: 0.043 ± 0.00089, 0.0385 ± 0.00085 and 0.047 ± 0.0012.
For DNRCMDAK, in that order: 1.49 ± 0.11, 2.51 ± 0.053 and 2.61 ± 0.05.
Consider DTKLGMAP V108L, for which the sfGFP reporter fluorescence in data set [1] stood at 0.0403 ± 0.00095; in data set [2] (ligand: 1 µM Pb) it was 0.0673 ± 0.0042; in data set [2] (ligand: 30 µM Zn), 0.288 ± 0.018.
As for KNVCIDDP M60L P61N, the sfGFP reporter fluorescence was found to be 0.453 ± 0.036 in data set [1], 1.86 ± 0.087 in data set [2] (ligand: 1 µM Pb) and 2.32 ± 0.15 in data set [2] (ligand: 30 µM Zn).
For KNVLMDDP M60L P61N, in that order: 0.606 ± 0.027, 1.64 ± 0.097 and 2.45 ± 0.11.
Consider KNVCMDDP M60L P61N, for which the sfGFP reporter fluorescence was determined as 0.987 ± 0.13 in data set [1], 2.86 ± 0.2 in data set [2] (ligand: 1 µM Pb) and 2.86 ± 0.26 in data set [2] (ligand: 30 µM Zn).
For TTKCGDRP, in that order: 1.83 ± 0.057, 2.37 ± 0.091 and 2.74 ± 0.22.
For KNRCMDDP P61N, in that order: 2.26 ± 0.13, 2.97 ± 0.17 and 2.85 ± 0.064.
On the same counts, the results for KNVCGADP M60L are 3.05 ± 0.41, 3.59 ± 0.26 and 3.01 ± 0.067.
Take DNVCIDDA M60L: the sfGFP reporter fluorescence in data set [1] came to 0.73 ± 0.014; in data set [2] (ligand: 1 µM Pb) it was 2.2 ± 0.24; in data set [2] (ligand: 30 µM Zn) it was 2.23 ± 0.2.
For DTKLGSPP Q121A, in that order: 0.0408 ± 0.0027, 0.186 ± 0.0074 and 0.3204 ± 0.0016.
On to DTKLGDAL Q121A, for which the sfGFP reporter fluorescence in data set [1] worked out at 0.04099 ± 0.00034; in data set [2] (ligand: 1 µM Pb), 0.104 ± 0.004; in data set [2] (ligand: 30 µM Zn) it was 0.329 ± 0.015.
Regarding KNVCMDDP M60L, the sfGFP reporter fluorescence in data set [1] turned out to be 3.21 ± 0.26; in data set [2] (ligand: 1 µM Pb) it was 3.58 ± 0.098; in data set [2] (ligand: 30 µM Zn), 3.18 ± 0.16.
On the same counts, the results for DTKCGCDA are 0.126 ± 0.0021, 1.6 ± 0.12 and 1.51 ± 0.051.
For DTKLGSPP V108L Q121A, in that order: 0.0413 ± 0.00089, 0.2 ± 0.0066 and 0.337 ± 0.004.
On the same counts, the results for DTKCGAAP are 0.264 ± 0.019, 1.56 ± 0.061 and 2.21 ± 0.16.
Consider DNRCIDDP M60L P61N, for which the sfGFP reporter fluorescence in data set [1] came out at 0.808 ± 0.044; in data set [2] (ligand: 1 µM Pb), 1.53 ± 0.025; in data set [2] (ligand: 30 µM Zn), 2.29 ± 0.32.
For DTKLGSRP V108L, in that order: 0.0395 ± 0.0015, 0.117 ± 0.0088 and 0.28 ± 0.012.
With DNRCIDAK, the sfGFP reporter fluorescence in data set [1] amounted to 0.674 ± 0.12; in data set [2] (ligand: 1 µM Pb) it was 1.93 ± 0.22; in data set [2] (ligand: 30 µM Zn) it was 2.51 ± 0.34.
For KNVCMDDP V16C, in that order: 1.32 ± 0.056, 3.46 ± 0.1 and 3.28 ± 0.18.
On the same counts, the results for DTKLGAPL Q121A are 0.0458 ± 0.0015, 0.245 ± 0.019 and 0.407 ± 0.017.
On the same counts, the results for KNVCGDDP M60L E81A are 2.61 ± 0.12, 3.41 ± 0.23 and 2.76 ± 0.4.
In the case of DSKLGMAP V108L, the sfGFP reporter fluorescence came to 0.043 in data set [1], 0.0646 ± 0.004 in data set [2] (ligand: 1 µM Pb) and 0.354 ± 0.015 in data set [2] (ligand: 30 µM Zn).
On the same counts, the results for DNVCMDDP V16C P61N are 0.092 ± 0.0024, 0.45 ± 0.015 and 0.463 ± 0.01.
For DSKLGNRA Q121A, in that order: 0.044 ± 0.0012, 0.209 ± 0.008 and 0.945 ± 0.054.
For DVVLGDDR H106A, in that order: 0.043 ± 0.0021, 0.126 ± 0.007 and 0.0489 ± 0.0029.
As for KNVCGDDP M60L P61S, the sfGFP reporter fluorescence was determined as 1.34 ± 0.11 in data set [1], 3.29 ± 0.12 in data set [2] (ligand: 1 µM Pb) and 2.58 ± 0.36 in data set [2] (ligand: 30 µM Zn).
For DTKLGSPP V108L, in that order: 0.0404 ± 0.0007, 0.127 ± 0.0092 and 0.186 ± 0.0066.
For KNVCMDDP E81A, in that order: 2.21 ± 0.21, 3.01 ± 0.4 and 2.71 ± 0.34.
For DTKLGAPW V108L, in that order: 0.0408 ± 0.002, 0.146 ± 0.0032 and 0.1781 ± 0.0015.
In the case of KNVLGDDR I90C H106A, the sfGFP reporter fluorescence in data set [1] stood at 0.0676 ± 0.0026; in data set [2] (ligand: 1 µM Pb), 0.502 ± 0.032; in data set [2] (ligand: 30 µM Zn) it was 0.74 ± 0.058.
On the same counts, the results for DNRCMDAK D87E are 1.06 ± 0.069, 2.46 ± 0.12 and 2.56 ± 0.13.
